Reference: US20220112288A1 (published 2022)
Changes are numbered by the printed parent chain.

B1: 75110_01L08A (antibody, V domains shown)
VH: QVQLQESGPGLVKPSETLSLTCTVSGGSISHYYWSWIRQPPGKGLEWIGYIHYSGTTNYNPSLKSRVTISVDTSKNQLSLKLRSVTAADTAVYYCARDQGFSSGGMDVWGQGTTVTVSS
VL: not shown
notes: Tested as clonal hybridoma supernatant (AlivaMab Mouse Kappa; anti-mouse Fc detection)
B2: 75110_02E08A (antibody, V domains shown)
VH: QVQLQESGPGLVKPSETLSLTCTVSGGSISTYYWTWIRQPAGKGLEWIGRVYTSGDTNYNPSLKSRVAMSLDTSKNQFSLKLSSVTAADTAVYYCARDSGALYSWNYGDAFDIWGQGTMVTVSS
VL: DIQMTQSPSAMSASVGDRVTITCRASQDISNYLAWFQQKPGKVPKRLIYAASSLQSGVPSRFSGSGSGTEFTLTISSLQPEDFATYYCLQHNSYPRTFGQGTKVEIK
notes: as for B1
B3: 75110_02I16A (antibody, V domains shown)
VH: QVQLQQWGAGLLKPSETLSLTCDVYGGSFSGYYWTWIRQPPGKGLEWIGEINHSGTTNSNPSLKSRVTISVDTSKSQFSLRLSSVTAADTAVYFCTRELNWFDPWGQGTLVTVSS
VL: DIQMTQSPSSVSASVGDRVTITCRASQDIANWLAWYQQKPGKAPQLLIYAASSLLGGVPSRFSGSGSGADFTLTISSLHPEDFATYYCQQANSFPYTFGQGTKLEIK
notes: Tested as clonal hybridoma supernatant (AlivaMab Mouse Kappa; anti-mouse Fc detection); also called 75110_02116A
B4: 75110_02K11A (antibody, V domains shown)
VH: QVQLQESGPGLVKPSQTLSLTCTVSGGSISSGFYYWTWIRQHPGKGLEWIGYISYSGNTYYNPSFKSRLTISVDTSKSQFSLKLSSVTAADTAVYYCARDRPSNFDAFDIWGQGTMVTVSS
VL: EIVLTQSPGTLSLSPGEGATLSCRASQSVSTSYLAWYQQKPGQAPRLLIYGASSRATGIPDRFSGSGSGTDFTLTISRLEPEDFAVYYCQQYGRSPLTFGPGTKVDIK
notes: Tested as clonal hybridoma supernatant (AlivaMab Mouse Kappa; anti-mouse Fc detection); also called Sib3.1
B5: 75110_01C18A (antibody, V domains shown)
VH: EVQLVESGGGLIQPGGSLRLSCAASGFTVSSNYMNWVRQAPGKGLEWVSVIYAGDNTYSADSVKGRFTISRDNSNNTLCLQMNSLRAEDTAVYYCAREGGTTGAFDIWGQGTMVTVSS
VL: B3 VL with D28G, A30N, N31S, Q45K, L55Q, G56S, A69T, H79Q, A91G
notes: as for B1
B6: 75110_01J09A (antibody, V domains shown)
VH: EVQLVESGGGLVQPGGSLRLSCVASGFTFSSYWMSWVRQAPGKGLEWVANTKEDGSDKYYVDSVKGRFTICRDNAKNSLYLQMNSLRAEDTAVYYCAREGGQWLALDYWGQGTLVTVSS
VL: DIQMTQSPSSVSASVGDRVTINCRASQGISSWLAWYQQKPGKAPNLLIFGASSLQSGVPSRFSGSGFGTDFSLTITTLQPEDFATYHCQQANSFPWTFGQGTKVEIK
notes: Tested as clonal hybridoma supernatant (AlivaMab Mouse Kappa; anti-mouse Fc detection); also called Sib2.2
B7: 75110_01H18A (antibody, V domains shown)
VH: QVQLQQWGAGLLKPSETLSLTCAVYGGSFSGYYWSWIRQSPGKGLEWIGEINQSGSTNYNPSLKSRVTISVDTSKNQFSLKLSSVTAADTAVYYCARVINWFDSWGQGTLVTVSS
VL: DIQMTQSPSSVSASVGDRVTITCRASQGISSWLAWYQQKPGKAPKLLIYAASSFQSGVPSRFSGSGSGTDFTLTISSLQTEDFATYYCQQANSFPYTFGQGTRLEIK
notes: Tested as clonal hybridoma supernatant (AlivaMab Mouse Kappa; anti-mouse Fc detection); also called Sib6.1
B8: 75110_03C01A (antibody, V domains shown)
VH: B7 VH with N76D, T109S
VL: B7 VL with K42N, A50D, R103K
notes: Tested as clonal hybridoma supernatant (AlivaMab Mouse Kappa; anti-mouse Fc detection); also called Sib6.2
B9: 75110_02E22A (antibody, V domains shown)
VH: QVQLQESGPGLVKPSETLSLTCTVSGGSISSFYWSWIRQPAGKGLEWIGRIYTSGSTNYNPSLKSRVTMSVDTSKNQFSLKLSSVTAADTAVYYCARELEKRNYYGMDVWGQGTTVTVSS
VL: DIQMTQSPSSLSASVGDRVTITCQASHDISNYLNWYQQKPGKAPKLLIFDASTLETGVPSRFSGSGSGTYFTFTIRSLQPEDIATYYCQQYDSLPLTFGGGTKVEIK
notes: Tested as clonal hybridoma supernatant (AlivaMab Mouse Kappa; anti-mouse Fc detection); also called Sib7.1
B10: 75110_01N04A (antibody, V domains shown)
VH: EVQLVESGGGLVQPGGSLRLSCAASGFTFSNYDMHWVRQATGKGLEWVSTIGTAGDTYYPGSVKGRFTISRENAKNSLYLQMNSLRAGDTAVYYCARGGDFYYGLDVWGQGTTVTVSS
VL: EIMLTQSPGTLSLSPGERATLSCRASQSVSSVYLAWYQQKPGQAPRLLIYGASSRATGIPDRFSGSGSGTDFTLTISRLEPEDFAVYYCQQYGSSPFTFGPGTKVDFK
notes: Tested as clonal hybridoma supernatant (AlivaMab Mouse Kappa; anti-mouse Fc detection); also called Sib1.13
B11: 75110_01G11A (antibody, V domains shown)
VH: B10 VH with N31S, K75R, Y79F, F101Y, L105M
VL: EIVLTQSPGTLSLFPGERATLSCRASQNTYSSYLAWYQQKPGQAPRLLIYGASNRATGIPDRFSGSGSGTDFTLTISRLEPEDFAVYYCQQHGTSPFTFGPGTKVDIK
notes: Tested as clonal hybridoma supernatant (AlivaMab Mouse Kappa; anti-mouse Fc detection); also called Sib1.6
B12: 75110_01J17A (antibody, V domains shown)
VH: B10 VH with N31S, A40G, G55D, K75E, F101Y, L105M
VL: B11 VL with T5A, F14S, N28S, T29V, S31I, N54S, S77T, H92F, T94S, I107F
notes: Tested as clonal hybridoma supernatant (AlivaMab Mouse Kappa; anti-mouse Fc detection); also called Sib1.12
B13: 75110_01K10A (antibody, V domains shown)
VH: B10 VH with G10A, S30R, F101Y, L105M
VL: B11 VL with G9D, F14S, N28S, T29L, Y30S, S32V, N54S, S66T, H92Y, T94S
notes: Tested as clonal hybridoma supernatant (AlivaMab Mouse Kappa; anti-mouse Fc detection); also called Sib1.3
B14: 75110_01E08A (antibody, V domains shown)
VH: B10 VH with S30N, G61A, S70Y, F101Y, L105M
VL: not shown
notes: Tested as clonal hybridoma supernatant (AlivaMab Mouse Kappa; anti-mouse Fc detection); also called Sib1.11
B15: 75110_02I18A (antibody, V domains shown)
VH: B10 VH with L4V, N31S, D100Y, F101Y, L105M
VL: B11 VL with F14S, N28S, T29V, Y30S, A44S, Y50H, N54S, F63V, H92Y, T94S
notes: Tested as clonal hybridoma supernatant (AlivaMab Mouse Kappa; anti-mouse Fc detection); also called 75110_02118A; Sib1.14
B16: 75110_01D24A (antibody, V domains shown)
VH: B7 VH with S40P, Q53H, K75E, S83N, V98L, I99V, S104P
VL: EIQMTQSPSSVSASVGDRVTITCRASQDISNWLAWYQQKPGKAPNLLIFAASSLQTGVPSRFSGSGSGTDFTLTISSLQPDDFATYYCQQANSFPYSFGQGTNLGIK
notes: as for B1
B17: 75110_11D03A (antibody, V domains shown)
VH: B6 VH with V23A, T51I, K52N, E53Q, S56N, D57E, C71S, Y80F, T113A
VL: B7 VL with L46F, Y49S, A50G, F54L, T80P, Y96W, R103K, L104V
notes: Tested as non-clonal AlivaMab Mouse Kappa hybridoma supernatant, captured by anti-mouse IgG Fc sensor
B18: 75110_01A06A (antibody, V domains shown)
VH: B6 VH with V23A, T51I, K52N, S56N, D57E, F68L, C71S, Y95F, A105S, T113A
VL: B7 VL with T20S, L46I, A50G, F54L, T80P, Y96W, R103K, L104V
notes: as for B17
B19: 75110_14N19A (antibody, V domains shown)
VH: B9 VH with S31R, F32Y, Y52C, G55E, S56N, T57P, S62A, K101R, R102L
VL: DIQMTQFPSSLSASVGDRVTITCQASQDISNYLNWYQQKPGKAPKLLIYDASNLESGVPSRFSGRGSGTDFTFTISSLQPEDFATFYCQQYDTLPITFGQGTRLEIK
notes: as for B17
B20: 75110_14I16A (antibody, V domains shown)
VH: B9 VH with G26N, F32Y, P40S, S70L, E98D, L99R, K101D, R102Y, N103Y
VL: B9 VL with I48L, F49Y, D50Y, T53N, Y70D, R76T, A84G, Y87S, S93N
notes: as for B17
B21: 75110_14P05A (antibody, V domains shown)
VH: B10 VH with N31S, M34V, D100F, F101Y, L105M
VL: B11 VL with F14S, N28S, T29V, Y30S, A44T, N54S, Y87F, H92S, T94S, I107V
notes: as for B17
B22: 75110_10L22A (antibody, V domains shown)
VH: B10 VH with N31S, S84G, G99N, D100Y, L105V
VL: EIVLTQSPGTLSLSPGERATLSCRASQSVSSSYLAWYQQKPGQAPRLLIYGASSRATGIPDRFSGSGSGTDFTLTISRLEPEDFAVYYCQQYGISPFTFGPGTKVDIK
notes: as for B17
B23: 75110_01E08A (antibody, V domains shown)
VH: B10 VH with S30N, G61A, S70Y, F101Y, L105M
VL: not shown
notes: as for B17

target: T1, human CD4 (human, UniProt P01730 26-458); experiment: FACS, clonal hybridoma supernatant on human PBMCs
T1 construct: whole, on cells; also called hCD4

Binder | % CD4 Stain [%] | gMFI of CD4+ [gMFI]
B1 | 35.3 | 208000
B2 | 35.4 | 115000
B3 | 36.1 | 145000
B4 | 28.2 | 203000
B5 | 34.1 | 205000
B6 | 34.8 | 143000
B7 | 48.8 | 101000
B8 | 36.1 | 169000
B9 | 32.8 | 268000
B10 | 37.2 | 205000
B11 | 39 | 164000
B12 | 35.2 | 167000
B13 | 38 | 191000
B14 | 36.5 | 113000
B15 | 40.5 | 162000
B16 | 32.9 | 134000

target: T2, Recombinant human CD4 (R&D Systems, Cat. 10327-CD) (human, UniProt P01730 26-390, limits assumed); experiment: BLI Octet, non-clonal supernatant on AMC sensor, 100 nM human CD4;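 further: hybridoma supernatants diluted 1:3, antibodies captured on AMC biosensors, association and dissociation with CD4 followed, curves smoothed and fit locally with 1:1 binding model for single-point kinetics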
T2 construct: Bought reagent; also called huCD4

Binder | Response
B17 | 0.177
B18 | 0.28
B19 | 0.105
B20 | 0.0852
B21 | 0.149
B22 | 0.113
B23 | 0.1

target: T2, Recombinant human CD4 (R&D Systems, …); experiment: BLI Octet, non-clonal supernatant on AMC sensor, 100 nM human CD4, 1:1 local fit;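 further: Single-concentration kinetics per supernatant, with the 1:1 model fitted across both the association and dissociation phases of the sensorgram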

Binder | Kd [nM] | koff [s⁻¹] | kon [M⁻¹ s⁻¹]
B17 | 4.67 | 0.000524 | 112000
B18 | 11 | 0.0013 | 120000
B19 | 19.2 | 0.00274 | 143000
B20 | < 0.001 | < 1e-07 | 42700
B21 | 12.3 | 0.00185 | 150000
B22 | 117 | 0.0065 | 55700
B23 | 10 | 0.0014 | 140000
